# US20160067316A1, “Selective Sensitization of Cancer Cells to, and Selective Protection of Non-Cancer Cells from Genotoxic Therapies” (Board of Supervisors of Louisiana State University and …, priority 2014, published 2016)
# B1: TAT-TLK1B: SEQ ID NO: 2, TAT-TLK1B fusion protein without the MS cleavage site (protein)
# chain: MHHHHHHSSGLVPRGSGMKETAAAKFERQHMDSPDLGTDDDDKAMAISDPNSSSVDKLGYGRKKRRQRRRGGSTMSGYPYDVPDYAGSMVKLAALESNKIQDLEKKEGRIDDLLRANCDLRRQIDEQQKLLEKYKERLNKCISMSKKLLIEKSTQEKLSSREKSMQDRLRLGHFTTVRHGASFTEQWTDGFAFQNLVKQQEWVNQQREDIERQRKLLAKRKPPTANNSQAPSTNSEPKQRKNKAVNGAENDPFVRPNLPQLLTLAEYHEQEEIFKLRLGHLKKEEAEIQAELERLERVRNLHIRELKRINNEDNSQFKDHPTLNERYLLLHLLGRGGFSEVYKAFDLYEQRYAAVKIHQLNKSWRDEKKENYHKHACREYRIHKELDHPRIVKLYDYFSLDTDTFCTVLEYCEGNDLDFYLKQHKLMSEKEARSIVMQIVNALRYLNEIKPPIIHYDLKPGNILLVDGTACGEIKITDFGLSKIMDDDSYGVDGMDLTSQGAGTYWYLPPECFVVGKEPPKISNKVDVWSVGVIFFQCLYGRKPFGHNQSQQDILQENTILKATEVQFPVKPVVSSEAKAFIRRCLAYRKEDRFDVHQLANDPYLLPHMRRSNSSGNLHMAGLTASPTPPSSSIITY
# modifications: TAT-TLK1B fusion protein
# B2: TAT-TLK-MS fusion protein (protein)
# chain: MHHHHHHSSGLVPRGSGMKETAAAKFERQHMDSPDLGTDDDDKAMAISDPNSSSVDKLGYGRKKRRQRRRGGSTMSGYPYDVPDYAGSMVKLAALESNKIQDLEKKEGRIDDLLRANCDLRRQIDEQQKLLEKYKERLNKCISMSKKLLIEKSTQEKLSSREKSMQDRLRLGHFTTVRHGASFTEQWTDGFAFQNLVKQQEWVNQQREDIERQRKLLAKRKPPTANNSQAPSTNSEPKQRKNKAVNGAENDPFVRPNLPQLLTLAEYHEQEEIFKLRLGHLKKEEAEIQAELERLERVRNLHIRELKRINNEDNSQFKDHPTLNERYLLLHLLGRGGFSEVYKAFDLYEQRYAAVKIHQLNKSWRDEKKENYHKHACREYRIHKELDHPRIVKLYDYFSLDTDTFCTVLEYCEGNDLDFYLKQHKLMSEKEARSIVMQIVNALRYLNEIKPPIIHYDLKPGNILLVDGTACGEIKITDFGLSKIMDDDSYGVDGMDLTSQGAGTYWYLPPECFVVGKEPPKISNKVDVWSVGVIFFQCLYGRKPFGHNQSQQDILQENTILKATEVQFPVKGSVPLSLRSGTPVVSSEAKAFIRRCLAYRKEDRFDVHQLANDPYLLPHMRRSNSSGNLHMAGLTASPTPPSSSIITY
# B3: TAT-TLK-MS: SEQ ID NO: 3, fusion protein with MT1-MMP cleavage site in a presumptive loop towards the carboxy terminus (protein)
# chain: MHHHHHHSSGLVPRGSGMKETAAAKFERQHMDSPDLGTDDDDKAMAISDPNSSSVDKLGYGRKKRRQRRRGGSTMSGYPYDVPDYAGSMVKLAALESNKIQDLEKKEGRIDDLLRANCDLRRQIDEQQKLLEKYKERLNKCISMSKKLLIEKSTQEKLSSREKSMQDRLRLGHFTTVRHGASFTEQWTDGFAFQNLVKQQEWVNQQREDIERQRKLLAKRKPPTANNSQAPSTNSEPKQRKNKAVNGAENDPFVRPNLPQLLTLAEYHEQEEIFKLRLGHLKKEEAEIQAELERLERVRNLHIRELKRINNEDNSQFKDHPTLNERYLLLHLLGRGGFSEVYKAFDLYEQRYAAVKIHQLNKSWRDEKKENYHKHACREYRIHKELDHPRIVKLYDYFSLDTDTFCTVLEYCEGNDLDFYLKQHKLMSEKEARSIVMQIVNALRYLNEIKPPIIHYDLKPGNILLVDGTACGEIKITDFGLSKIMDDDSYGVDGMDLTSQGAGTYWYLPPECFVVGKEPPKISNKVDVWSVGVIFFQCLYGRKPFGHNQSQQDILQENTILKATEVQFPVKGSVPLSLRSGTPVVSSEAKAFIRRCLAYRKEDRFDVHQLANDPYLLPHMRRSNSSGNLHMAGLTASPTPPSSSIITY
# modifications: TAT-TLK-MS fusion protein
# B4: TAT-TL-MS-K fusion protein (protein)
# chain: MHHHHHHSSGLVPRGSGMKETAAAKFERQHMDSPDLGTDDDDKAMAISDPNSSSVDKLGYGRKKRRQRRRGGSTMGGYPYDVPDYAGSMLKLAALESNKIQDLEKKEGRIDDLLRANCDLRRQIDEQQKLLEKYKERLNKCISMSKKLLIEKSTQEKLSSREKSMQDRLRLGHFTTVRHGASFTEQWTDGFAFQNLVKQQEWVNQQREDIERQRKLLAKRKPPTANNSQAPSTNSEPKQRKNKAVNGAENDPFVRPNLPQLLTLAEYHEQEEIFKLRLGHLKKEEAEIQAELERLERVRNLHIRELKRINNEDNSQFKAAAVPLSLRSGTSDHPTLNERYLLLHLLGRGGFSEVYKAFDLYEQRYAAVKIHQLNKSWRDEKKENYHKHACREYRIHKELDHPRIVKLYDYFSLDTDTFCTVLEYCEGNDLDFYLKQHKLMSEKEARSIVMQIVNALRYLNEIKPPIIHYDLKPGNILLVDGTACGEIKITDFGLSKIMDDDSYGVDGMDLTSQGAGTYWYLPPECFVVGKEPPKISNKVDVWSVGVIFFQCLYGRKPFGHNQSQQDILQENTILKATEVQFPVKPVVSSEAKAFIRRCLAYRKEDRFDVHQLANDPYLLPHMRRSNSSGNLHMAGLTASPTPPSSSIITY
# B5: TAT-TL-MS-K: SEQ ID NO: 4, fusion protein with MT1-MMP cleavage site inserted 5′ to the kinase domain of TLK1B (protein)
# chain: MHHHHHHSSGLVPRGSGMKETAAAKFERQHMDSPDLGTDDDDKAMAISDPNSSSVDKLGYGRKKRRQRRRGGSTMGGYPYDVPDYAGSMLKLAALESNKIQDLEKKEGRIDDLLRANCDLRRQIDEQQKLLEKYKERLNKCISMSKKLLIEKSTQEKLSSREKSMQDRLRLGHFTTVRHGASFTEQWTDGFAFQNLVKQQEWVNQQREDIERQRKLLAKRKPPTANNSQAPSTNSEPKQRKNKAVNGAENDPFVRPNLPQLLTLAEYHEQEEIFKLRLGHLKKEEAEIQAELERLERVRNLHIRELKRINNEDNSQFKAAAVPLSLRSGTSDHPTLNERYLLLHLLGRGGFSEVYKAFDLYEQRYAAVKIHQLNKSWRDEKKENYHKHACREYRIHKELDHPRIVKLYDYFSLDTDTFCTVLEYCEGNDLDFYLKQHKLMSEKEARSIVMQIVNALRYLNEIKPPIIHYDLKPGNILLVDGTACGEIKITDFGLSKIMDDDSYGVDGMDLTSQGAGTYWYLPPECFVVGKEPPKISNKVDVWSVGVIFFQCLYGRKPFGHNQSQQDILQENTILKATEVQFPVKPVVSSEAKAFIRRCLAYRKEDRFDVHQLANDPYLLPHMRRSNSSGNLHMAGLTASPTPPSSSIITY
# modifications: TAT-TL-MS-K fusion protein
# Key:
# rat salivary glands = settings: delivered directly to rat salivary glands; preclinical, Sunavala-Dossabhoy 2012; cited from earlier work
# MT1-MMP catalytic domain = biological target: T1, MT1-MMP catalytic domain (Homo sapiens, UniProt P50281); assay: In vitro cleavage by MT1-MMP catalytic domain (anti-His immunoblot); assay type: biochemical; settings: for sensitivity to MT1-MMP cleavage: incubated with recombinant MT1-MMP catalytic enzyme
# T1 construct: reacted with the MT1-MMP catalytic domain (EMD Millipore) at 22° C; purchased Calbiochem / EMD Millipore
# Protocol: FIG. 3 depicts anti-His immunoblotting of TAT-TLK1B or TAT-MS-TLK1B, reacted with the MT1-MMP catalytic domain (EMD Millipore) at 22° C., as a function of time. 1.5 μg TAT-TLK1B, TAT-MS-TLK1B or TAT-TL-MS-K was reacted with 0.02 mU MT1-MMP, catalytic domain (Calbiochem) in reaction buffer containing 50 mM Tris pH 7.5, 150 mM NaCl, 5 mM CaCl2. The reactions were incubated at 22° C. for the indicated times (10, 20, 30, 60, or 120 minutes). […] Although MT1-MMP has a preference for the preferred cleavage site motif, that preference is neither strict nor absolute. Thus other proteins will be cleaved as well; what is important is the relative sensitivity of MS-containing proteins to MT1-MMP cleavage.
# [1] = system: HNSCC cells (cell line SCC40); assay: Protein transduction into SCC40 cells (anti-hemagglutinin immunoblot); assay type: cell-based; settings: 40 μg protein, 6 hours after protein transduction
# Protocol: HNSCC cells (cell line SCC40) were cultured on rat tail type I collagen plates in DMEM/0.1% BSA for 3 days before addition of 40 μg TAT-TLK1B or TAT-MS-TLK1B. Control cells (Untreated cells, Untx) were treated with an equal volume of OPTI-MEM™ reduced serum medium—a modification of Eagle's Minimum Essential Media, buffered with HEPES and sodium bicarbonate, and supplemented with hypoxanthine, thymidine, sodium pyruvate, L-glutamine, trace elements, and growth factors. FIG. 4A depicts the results of immunoblotting the respective cell lysates with anti-(MT1-MMP catalytic domain) antibody (Millipore). The arrow at 68 kD corresponds to pro-MT1-MMP. […] The 52 kD and 55 kD proteins were products of autocatalytic cleavage of MT1-MMP. […] Active MT1-MMP is membrane-bound, and is responsible for cleaving and activating pro-MMP-2 to active MMP-2. Active MT1-MMP can also undergo autocatalytic processing. The presence of a substrate such as TAT-MS-TLK1B or TAT-TL-MS-K will decrease the MT1-MMP autocatalysis. […] In other words, the observed decrease in MT1-MMP auto-cleavage is indirect evidence that the recombinant TAT-MS-fusion protein is being cleaved as designed.
# FIG. 4B depicts results of immunoblotting the respective cell lysates with horseradish peroxidase-conjugated anti-hemagglutinin (Sigma) 6 hours after protein transduction. […]
# histone H3 [2] = biological target: histone H3
# histone H3 [3] = biological target: histone H3 (Homo sapiens, UniProt P68431); assay: Kinase activity by histone H3 Ser10 phosphorylation (immunoblot); assay type: biochemical; settings: in vitro, kinase buffer at 30° C; data not shown
# Protocol: In the next attempt, the MS was inserted 5′ to the kinase domain of TLK1B. The recombinant TAT-TL-MS-K protein was produced, purified, and the activity of the protein was analyzed in vitro. […] Activity of the TAT-TL-MS-K was monitored indirectly by evaluation of histone H3 Seri 0 phosphorylation. Recombinant TAT-TLK1B or TAT-TL-MS-K was reacted with histone H3 at ratios of 1:10, 1:5, or 1:1 in a kinase buffer at 30° C. Reactions were loaded onto SDS-PAGE gels, and immunoblotted against anti-Ser10 H3 (Millipore). […] The functional, MMP-sensitive TAT-TL-MS-K will be used to confirm transduction in normal and cancer cells, and the ability of TAT-TL-MS-K to sensitize cancer cells such as head and neck cancer cells to radiation.
molecule,measurement,setting,value
MT1-MMP expressed by HNSCC cell line SCC40,"MT1-MMP autoproteolytic products (52 kD and 55 kD) in SCC40 lysates, immunoblot",TAT-MS-TLK1B,The autoproteolytic products declined sharply in the presence of the TAT-MS-TLK1B
B1,radiation-induced xerostomia,rat salivary glands,mitigate radiation-induced xerostomia
same,cleavage by MT1-MMP catalytic domain after 120 minutes,"MT1-MMP catalytic domain; 1.5 μg protein, 0.02 mU MT1-MMP, 22° C, 120 minutes",still showed substantial activity
same,sensitivity to MT1-MMP cleavage,MT1-MMP catalytic domain,"also cleaved by the enzyme, although not as rapidly"
same,transduction into SCC40 cancer cells,[1],efficiently transduced
B2,phosphorylation of histone H3 Ser-10 (kinase activity),histone H3 [2],"would not phosphorylate the TLK substrate, histone H3 Ser-10"
B3,sensitivity to MT1-MMP cleavage,MT1-MMP catalytic domain,sensitive to cleavage
same,kinase activity (phosphorylation of histone H3 Ser-10),histone H3 [3],would not phosphorylate the TLK substrate
B4,"phosphorylation of histone H3 Ser10, immunoblot with anti-Ser10 H3",histone H3 [2],"TAT-TL-MS-K retained the native kinase activity, as indicated by phosphorylation of histone H3 (data not shown)"
B5,sensitivity to MT1-MMP cleavage,MT1-MMP catalytic domain,more sensitive to MT1-MMP cleavage than was TAT-TLK1B
same,kinase activity (phosphorylation of histone H3 Ser-10),histone H3 [3],retained the native kinase activity
